The chains are these.
T1: PUF4 RNA-binding domain (Saccharomyces cerevisiae, UniProt P25339 537-888)
T1 sequence: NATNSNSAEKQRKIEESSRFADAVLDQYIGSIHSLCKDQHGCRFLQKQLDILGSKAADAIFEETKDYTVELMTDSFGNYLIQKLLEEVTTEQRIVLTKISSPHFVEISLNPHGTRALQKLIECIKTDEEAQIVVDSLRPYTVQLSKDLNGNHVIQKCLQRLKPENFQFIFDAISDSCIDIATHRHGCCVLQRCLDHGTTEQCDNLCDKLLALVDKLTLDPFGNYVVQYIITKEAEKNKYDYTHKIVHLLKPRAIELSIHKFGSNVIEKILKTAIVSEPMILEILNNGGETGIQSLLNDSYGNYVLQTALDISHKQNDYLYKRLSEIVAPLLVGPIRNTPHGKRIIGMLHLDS

We go through 25 molecules from article PMC9352680, “A comprehensive thermodynamic model for RNA binding by the Saccharomyces cerevisiae Pumilio protein PUF4”.

The series concerns the target T1, PUF4 RNA-binding domain. Nature of the series: Mg; RNA-MaP; 20 mM Na-HEPES pH 7.4, 30 mM KOAc, 0.75 mM MgCl2, 0.1% Tween-20, 5% glycerol, 0.1 mg/mL BSA, 2 mM DTT; 25 C; 0.0125-409.6 nM protein. Particulars: tags: N-His6-TEV cleaved; C-SNAP kept, Cy3B-labelled; label: tethered on chip by stalled RNA polymerase.
As for UCUCUUUGUAAAUAUCUCUCUU (ssRNA) [Ic_S1_P5E.1_K5.1_C5.1_H5.1_A5.1_[T5A]_[T6A]_[A7T]_F5.1_[T8A]_[A10C]_T5.1], the dissociation constant (Kd) (in general, a measure of binding affinity in units of concentration) was found to be 27.1 nM.

As for UCUCUUUGUACCAGCGUCUCUU (ssRNA) [Ic_S1_P5E.1_K5.1_C5.1_H5.1_A5.1_[T5C]_[T6C]_F5.1_[T8G]_[T9C]_[A10G]_T5.1], the equilibrium dissociation constant (Kd) turned out to be 1180 nM. The molecule UCUCUUUGUAUCUUCCUCUCUU (ssRNA) [Ic_S1_P5E.1_K5.1_C5.1_H5.1_A5.1_[T6C]_[A7T]_F5.1_[T9C]_[A10C]_T5.1] registered a Kd of 74.7 nM. Molecule UCUCUUUGUACCUUAGUCUCUU (ssRNA) [Ic_S1_P5E.1_K5.1_C5.1_H5.1_A5.1_[T5C]_[T6C]_[A7T]_F5.1_[T9A]_[A10G]_T5.1] had a Kd of 2.41 nM.

For the molecule UCUCUUUGUACUCUUUUCUCUU (ssRNA) [Ic_S1_P5E.1_K5.1_C5.1_H5.1_A5.1_[T5C]_[A7C]_F5.1_[A10T]_T5.1], the equilibrium dissociation constant (Kd) worked out at 23.1 nM.

With UCUCUUCGUACAUAUCUCUU (ssRNA) [Ib_S1_P3E.1_K3.1_C3.1_H3.1_[T1C]_A3.1_[T5C]_F3.1_T3.1], the affinity, expressed as Kd, was 1050 nM. With UCUCUUUGUAACCCGAUCUCUU (ssRNA) [Ic_S1_P5E.1_K5.1_C5.1_H5.1_A5.1_[T5A]_[T6C]_[A7C]_F5.1_[T8C]_[T9G]_T5.1] the figure was 1950 nM. With UCUCUUUGUAUCAAUGUCUCUU (ssRNA) [Ic_S1_P5E.1_K5.1_C5.1_H5.1_A5.1_[T6C]_F5.1_[T8A]_[A10G]_T5.1] the figure was 354 nM. Take UCUCUUUGUAUGUACCUCUCUU (ssRNA) [Ic_S1_P5E.1_K5.1_C5.1_H5.1_A5.1_[T6G]_[A7T]_F5.1_[T8A]_[T9C]_[A10C]_T5.1]: the Kd was 93.8 nM. In the case of UCUCUUUGUAUCGUUGUCUCUU (ssRNA) [Ic_S1_P5E.1_K5.1_C5.1_H5.1_A5.1_[T6C]_[A7G]_F5.1_[A10G]_T5.1] it was 315 nM.

Regarding UCUCUUUGUACAAAACUCUCUU (ssRNA) [Ic_S1_P5E.1_K5.1_C5.1_H5.1_A5.1_[T5C]_[T6A]_F5.1_[T8A]_[T9A]_[A10C]_T5.1], binding was put at a Kd of 45.2 nM. In the case of UCUCUUUGUAACCGUAUCUCUU (ssRNA) [Ic_S1_P5E.1_K5.1_C5.1_H5.1_A5.1_[T5A]_[T6C]_[A7C]_F5.1_[T8G]_T5.1] it was 52.9 nM; in that of UCUCUUUGUAGUUUAUUCUCUU (ssRNA) [Ic_S1_P5E.1_K5.1_C5.1_H5.1_A5.1_[T5G]_[A7T]_F5.1_[T9A]_[A10T]_T5.1], 15.2 nM; in that of UCUCUUUGUAACAUUCUCUCUU (ssRNA) [Ic_S1_P5E.1_K5.1_C5.1_H5.1_A5.1_[T5A]_[T6C]_F5.1_[A10C]_T5.1], 15 nM. On to UCUCUUUGUACUCAUUUCUCUU (ssRNA) [Ic_S1_P5E.1_K5.1_C5.1_H5.1_A5.1_[T5C]_[A7C]_F5.1_[T8A]_[A10T]_T5.1], for which the equilibrium dissociation constant (Kd) worked out at 119 nM.

Take UCUCUUUGUAUAUCAGUCUCUU (ssRNA) [Ic_S1_P5E.1_K5.1_C5.1_H5.1_A5.1_[T6A]_[A7T]_F5.1_[T8C]_[T9A]_[A10G]_T5.1]: binding was put at a Kd of 4.58 nM.

UCUCUUUGUAGCACUUUCUCUU (ssRNA) [Ic_S1_P5E.1_K5.1_C5.1_H5.1_A5.1_[T5G]_[T6C]_F5.1_[T8C]_[A10T]_T5.1]: binding was characterised by a dissociation constant (Kd) of 1000 nM.

For UCUCUUUGUACGUUCAUCUCUU (ssRNA) [Ic_S1_P5E.1_K5.1_C5.1_H5.1_A5.1_[T5C]_[T6G]_[A7T]_F5.1_[T9C]_T5.1], the affinity, expressed as Kd, was 51.8 nM. Molecule UCUCUUAGUACAUAUCUCUU (ssRNA) [Ib_S1_P3E.1_K3.1_C3.1_H3.1_[T1A]_A3.1_[T5C]_F3.1_T3.1] showed a dissociation constant (Kd) of 1760 nM. On to UCUCUUUGUAUCUCGAUCUCUU (ssRNA) [Ic_S1_P5E.1_K5.1_C5.1_H5.1_A5.1_[T6C]_[A7T]_F5.1_[T8C]_[T9G]_T5.1], for which the Kd came to 463 nM. With UCUCUUUGUAUCCAGCUCUCUU (ssRNA) [Ic_S1_P5E.1_K5.1_C5.1_H5.1_A5.1_[T6C]_[A7C]_F5.1_[T8A]_[T9G]_[A10C]_T5.1] the figure was 1300 nM; with UCUCUUUGUACGUGCUUCUCUU (ssRNA) [Ic_S1_P5E.1_K5.1_C5.1_H5.1_A5.1_[T5C]_[T6G]_[A7T]_F5.1_[T8G]_[T9C]_[A10T]_T5.1], 297 nM; with UCUCUUUGUAUGUUUCUCUCUU (ssRNA) [Ic_S1_P5E.1_K5.1_C5.1_H5.1_A5.1_[T6G]_[A7T]_F5.1_[A10C]_T5.1], 47 nM. In the case of UCUCUUUGUAUCUUAUUCUCUU (ssRNA) [Ic_S1_P5E.1_K5.1_C5.1_H5.1_A5.1_[T6C]_[A7T]_F5.1_[T9A]_[A10T]_T5.1] it was 3.28 nM; in that of UCUCUUUGUAUCCCUAUCUCUU (ssRNA) [Ic_S1_P5E.1_K5.1_C5.1_H5.1_A5.1_[T6C]_[A7C]_F5.1_[T8C]_T5.1], 13.3 nM.
